Source: US20100040606A1
pKd: −log10 of the molar value.

Target: RSV protein F (fusion glycoprotein), recombinant or purified (human respiratory syncytial virus, strain not stated) (UniProt P03420)
Assay: SPR (Biacore 3000), Fab over immobilised recombinant antigen

For “Fab fragment derived from commercially available Palivizumab (Synagis)”, the pKd was 8.42, the koff was 0.000757 s⁻¹ and the kon was 200000 M⁻¹ s⁻¹. It also gave a t1/2 of 15 min.
